# According to patent publication US10450368:
# How the values were obtained:
# Histones [1] = assay: AtheNA, Ab 12.5 ug/ml
# RNP (ribonucleoprotein) [2] = assay: AtheNA, Ab 12.5 ug/ml
# SSB [3] = target: SSB (UniProt P05455); assay: AtheNA, Ab 12.5 ug/ml
# Scl-70 [4] = target: Scl-70 (UniProt P11387); assay: AtheNA, Ab 12.5 ug/ml
# Jo-1 [5] = target: Jo-1 (UniProt P12081); assay: AtheNA, Ab 12.5 ug/ml
# Sm (Smith antigen) [6] = assay: AtheNA, Ab 12.5 ug/ml
# Centromere B [7] = target: Centromere B (UniProt P07199); assay: AtheNA, Ab 12.5 ug/ml
# Centromere B, sequence (P07199 whole entry): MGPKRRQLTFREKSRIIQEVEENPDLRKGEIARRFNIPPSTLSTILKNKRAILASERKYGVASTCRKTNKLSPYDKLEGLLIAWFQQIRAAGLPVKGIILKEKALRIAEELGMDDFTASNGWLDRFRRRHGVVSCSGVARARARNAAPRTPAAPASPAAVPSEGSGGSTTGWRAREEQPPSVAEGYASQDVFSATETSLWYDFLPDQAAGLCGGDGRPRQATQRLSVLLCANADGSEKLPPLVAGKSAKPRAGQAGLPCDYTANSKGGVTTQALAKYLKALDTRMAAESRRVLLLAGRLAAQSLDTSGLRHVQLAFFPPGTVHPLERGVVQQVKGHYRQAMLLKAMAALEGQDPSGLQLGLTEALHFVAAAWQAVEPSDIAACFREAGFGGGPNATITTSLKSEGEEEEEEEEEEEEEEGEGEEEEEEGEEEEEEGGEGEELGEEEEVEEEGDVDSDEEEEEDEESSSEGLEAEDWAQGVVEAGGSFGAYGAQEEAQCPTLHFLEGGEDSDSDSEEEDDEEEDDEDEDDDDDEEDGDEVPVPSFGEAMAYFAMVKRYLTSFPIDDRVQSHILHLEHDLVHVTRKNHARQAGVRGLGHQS
# SSA [8] = assay: AtheNA, Ab 12.5 ug/ml
# Histones [9] = assay: AtheNA, Ab 6.25 ug/ml
# RNP (ribonucleoprotein) [10] = assay: AtheNA, Ab 6.25 ug/ml
# SSB [11] = target: SSB (UniProt P05455); assay: AtheNA, Ab 6.25 ug/ml
# Scl-70 [12] = target: Scl-70 (UniProt P11387); assay: AtheNA, Ab 6.25 ug/ml
# Jo-1 [13] = target: Jo-1 (UniProt P12081); assay: AtheNA, Ab 6.25 ug/ml
# Sm (Smith antigen) [14] = assay: AtheNA, Ab 6.25 ug/ml
# Centromere B [15] = target: Centromere B (UniProt P07199); assay: AtheNA, Ab 6.25 ug/ml
# SSA [16] = assay: AtheNA, Ab 6.25 ug/ml
# Histones [17] = assay: AtheNA, Ab 25 ug/ml
# RNP (ribonucleoprotein) [18] = assay: AtheNA, Ab 25 ug/ml
# SSB [19] = target: SSB (UniProt P05455); assay: AtheNA, Ab 25 ug/ml
# Scl-70 [20] = target: Scl-70 (UniProt P11387); assay: AtheNA, Ab 25 ug/ml
# Jo-1 [21] = target: Jo-1 (UniProt P12081); assay: AtheNA, Ab 25 ug/ml
# Sm (Smith antigen) [22] = assay: AtheNA, Ab 25 ug/ml
# Centromere B [23] = target: Centromere B (UniProt P07199); assay: AtheNA, Ab 25 ug/ml
# SSA [24] = assay: AtheNA, Ab 25 ug/ml
# CH505w030.20D8gp120/293F = assay: ELISA
# CH505w136.B18D8gp120 = assay: ELISA
# CH505.w30.12D8gp120 = assay: ELISA
# CH505w020.14D8gp120 = assay: ELISA
# CH0505_CON D7gp120/293i = assay: ELISA
# CH505.M9D8gp120/293F [25] = assay: direct-binding ELISA
# CH505.M21D8gp120/293F [26] = assay: direct-binding ELISA
# CH505.M19D8gp120 [27] = assay: direct-binding ELISA
# [28] = target: CH505.TF mutant gp120 M8 (HIV-1); assay: direct-binding ELISA
# [29] = target: CH505.TF mutant gp120 M6 (HIV-1); assay: direct-binding ELISA
# CH505.M5D8gp120293F [30] = assay: direct-binding ELISA
# CH505.M11D8gp120/293F [31] = assay: direct-binding ELISA
# CH505.M7D8gp120/293F [32] = assay: direct-binding ELISA
# [33] = target: CH505.TF mutant gp120 M20 (HIV-1); assay: direct-binding ELISA
# CH505.M10D8gp120 [34] = assay: direct-binding ELISA
# [35] = target: HIV-1 CH505 transmitted/founder gp120 Env (HIV-1); assay: SPR, antibody captured on anti-human Ig Fc, gp120 injected
# CH505.M9D8gp120/293F [36] = assay: ELISA
# CH505.M21D8gp120/293F [37] = assay: ELISA
# CH505.M19D8gp120 [38] = assay: ELISA
# [39] = target: CH505.TF mutant gp120 M8 (HIV-1); assay: ELISA
# [40] = target: CH505.TF mutant gp120 M6 (HIV-1); assay: ELISA
# CH505.M5D8gp120293F [41] = assay: ELISA
# CH505.M11D8gp120/293F [42] = assay: ELISA
# CH505.M7D8gp120/293F [43] = assay: ELISA
# [44] = target: CH505.TF mutant gp120 M20 (HIV-1); assay: ELISA
# CH505.M10D8gp120 [45] = assay: ELISA
# SSB, sequence (P05455 whole entry): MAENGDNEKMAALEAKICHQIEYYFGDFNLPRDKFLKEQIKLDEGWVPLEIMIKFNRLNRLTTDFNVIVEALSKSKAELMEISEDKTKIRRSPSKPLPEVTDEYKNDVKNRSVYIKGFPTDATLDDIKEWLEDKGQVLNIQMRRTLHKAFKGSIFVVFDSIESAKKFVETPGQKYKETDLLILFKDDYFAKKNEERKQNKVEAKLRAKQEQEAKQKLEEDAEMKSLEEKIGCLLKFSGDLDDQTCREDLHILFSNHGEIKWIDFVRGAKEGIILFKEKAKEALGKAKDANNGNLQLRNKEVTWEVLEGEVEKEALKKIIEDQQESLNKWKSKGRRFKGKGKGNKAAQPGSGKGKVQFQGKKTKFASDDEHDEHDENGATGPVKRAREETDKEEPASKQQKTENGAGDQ
# Scl-70, sequence (P11387 whole entry): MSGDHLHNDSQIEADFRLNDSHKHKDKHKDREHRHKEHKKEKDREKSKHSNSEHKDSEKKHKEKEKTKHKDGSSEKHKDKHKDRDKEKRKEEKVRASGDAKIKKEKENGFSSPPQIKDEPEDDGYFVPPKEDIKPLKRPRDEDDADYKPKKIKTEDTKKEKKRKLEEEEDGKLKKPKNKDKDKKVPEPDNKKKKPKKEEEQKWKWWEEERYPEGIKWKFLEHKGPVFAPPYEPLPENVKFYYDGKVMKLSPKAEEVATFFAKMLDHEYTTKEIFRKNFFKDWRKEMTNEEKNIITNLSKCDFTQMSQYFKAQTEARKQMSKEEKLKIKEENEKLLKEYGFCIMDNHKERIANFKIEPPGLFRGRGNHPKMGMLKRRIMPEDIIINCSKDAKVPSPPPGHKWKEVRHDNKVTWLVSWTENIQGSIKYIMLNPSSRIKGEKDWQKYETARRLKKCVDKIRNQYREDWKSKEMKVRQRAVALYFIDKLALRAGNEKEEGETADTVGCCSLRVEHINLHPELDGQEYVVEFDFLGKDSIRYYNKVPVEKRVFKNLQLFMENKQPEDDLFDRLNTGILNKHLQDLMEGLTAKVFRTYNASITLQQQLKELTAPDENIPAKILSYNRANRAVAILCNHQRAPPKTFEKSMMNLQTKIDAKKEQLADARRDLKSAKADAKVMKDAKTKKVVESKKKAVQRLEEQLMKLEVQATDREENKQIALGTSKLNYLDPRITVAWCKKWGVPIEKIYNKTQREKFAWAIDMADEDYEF
# Jo-1, sequence (P12081 whole entry): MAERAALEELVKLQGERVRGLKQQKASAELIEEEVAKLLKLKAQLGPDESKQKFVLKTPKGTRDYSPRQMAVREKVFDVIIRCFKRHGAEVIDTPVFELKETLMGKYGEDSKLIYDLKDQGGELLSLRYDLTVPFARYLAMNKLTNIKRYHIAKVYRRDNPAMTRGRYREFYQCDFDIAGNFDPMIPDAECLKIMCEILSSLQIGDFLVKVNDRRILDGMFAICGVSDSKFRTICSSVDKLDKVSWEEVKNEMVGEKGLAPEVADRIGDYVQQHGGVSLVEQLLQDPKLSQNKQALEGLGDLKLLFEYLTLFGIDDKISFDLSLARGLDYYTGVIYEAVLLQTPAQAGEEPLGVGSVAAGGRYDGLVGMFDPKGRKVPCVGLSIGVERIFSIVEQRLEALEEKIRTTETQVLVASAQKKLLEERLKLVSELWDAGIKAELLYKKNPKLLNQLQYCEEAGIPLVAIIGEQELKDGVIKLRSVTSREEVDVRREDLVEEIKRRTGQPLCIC
substance,measurement,setting,value
CH235UA/293i (antibody),AtheNA signal (relative luminescence units),Histones [1],4
same,AtheNA signal (relative luminescence units),RNP (ribonucleoprotein) [2],3
same,AtheNA signal (relative luminescence units),SSB [3],4
same,AtheNA signal (relative luminescence units),Scl-70 [4],3
same,AtheNA signal (relative luminescence units),Jo-1 [5],5
same,AtheNA signal (relative luminescence units),Sm (Smith antigen) [6],6
same,AtheNA signal (relative luminescence units),Centromere B [7],3
same,AtheNA signal (relative luminescence units),SSA [8],9
same,AtheNA signal (relative luminescence units),Histones [9],2
same,AtheNA signal (relative luminescence units),RNP (ribonucleoprotein) [10],2
same,AtheNA signal (relative luminescence units),SSB [11],5
same,AtheNA signal (relative luminescence units),Scl-70 [12],3
same,AtheNA signal (relative luminescence units),Jo-1 [13],3
same,AtheNA signal (relative luminescence units),Sm (Smith antigen) [14],5
same,AtheNA signal (relative luminescence units),Centromere B [15],2
same,AtheNA signal (relative luminescence units),SSA [16],10
same,AtheNA signal (relative luminescence units),Histones [17],3
same,AtheNA signal (relative luminescence units),RNP (ribonucleoprotein) [18],4
same,AtheNA signal (relative luminescence units),SSB [19],3
same,AtheNA signal (relative luminescence units),Scl-70 [20],3
same,AtheNA signal (relative luminescence units),Jo-1 [21],5
same,AtheNA signal (relative luminescence units),Sm (Smith antigen) [22],6
same,AtheNA signal (relative luminescence units),Centromere B [23],3
same,AtheNA signal (relative luminescence units),SSA [24],9
CH103 UCA (antibody),LogAUC,CH505w030.20D8gp120/293F,0
same,LogAUC,CH505w136.B18D8gp120,0
same,LogAUC,CH505.w30.12D8gp120,0
same,LogAUC,CH505w020.14D8gp120,0.33
same,LogAUC,CH0505_CON D7gp120/293i,4.3
same,LogAUC,CH505.M9D8gp120/293F [25],0.12
same,LogAUC,CH505.M21D8gp120/293F [26],0
same,LogAUC,CH505.M19D8gp120 [27],1.74
same,LogAUC,[28],0
same,LogAUC,[29],5.23
same,LogAUC,CH505.M5D8gp120293F [30],0
same,LogAUC,CH505.M11D8gp120/293F [31],2.62
same,LogAUC,CH505.M7D8gp120/293F [32],0.44
same,LogAUC,[33],0
same,LogAUC,CH505.M10D8gp120 [34],1.35
same,Kd,[35],0.227 µM
same,kon,[35],37000 M⁻¹ s⁻¹
CH235 IA3 (antibody),AtheNA signal (relative luminescence units),Histones [1],7
same,AtheNA signal (relative luminescence units),RNP (ribonucleoprotein) [2],5
same,AtheNA signal (relative luminescence units),SSB [3],6
same,AtheNA signal (relative luminescence units),Scl-70 [4],3
same,AtheNA signal (relative luminescence units),Jo-1 [5],3
same,AtheNA signal (relative luminescence units),Sm (Smith antigen) [6],12
same,AtheNA signal (relative luminescence units),Centromere B [7],15
same,AtheNA signal (relative luminescence units),SSA [8],12
same,LogAUC,CH505.M9D8gp120/293F [36],0
same,LogAUC,CH505.M21D8gp120/293F [37],0
same,LogAUC,CH505.M19D8gp120 [38],0.11
same,LogAUC,CH505w030.20D8gp120/293F,1.16
same,LogAUC,[39],0
same,LogAUC,[40],2.96
same,LogAUC,CH505.M5D8gp120293F [41],7.01
same,LogAUC,CH505.M11D8gp120/293F [42],0
same,LogAUC,CH505w136.B18D8gp120,0
same,LogAUC,CH505.M7D8gp120/293F [43],0
same,LogAUC,[44],0
same,LogAUC,CH505.w30.12D8gp120,0
same,LogAUC,CH505w020.14D8gp120,2.72
same,LogAUC,CH505.M10D8gp120 [45],0.08
same,LogAUC,CH0505_CON D7gp120/293i,5.09
same,AtheNA signal (relative luminescence units),Histones [9],5
same,AtheNA signal (relative luminescence units),RNP (ribonucleoprotein) [10],4
same,AtheNA signal (relative luminescence units),SSB [11],3
same,AtheNA signal (relative luminescence units),Scl-70 [12],2
same,AtheNA signal (relative luminescence units),Jo-1 [13],2
same,AtheNA signal (relative luminescence units),Sm (Smith antigen) [14],7
same,AtheNA signal (relative luminescence units),Centromere B [15],9
same,AtheNA signal (relative luminescence units),SSA [16],12
same,AtheNA signal (relative luminescence units),Histones [17],12
same,AtheNA signal (relative luminescence units),RNP (ribonucleoprotein) [18],7
same,AtheNA signal (relative luminescence units),SSB [19],9
same,AtheNA signal (relative luminescence units),Scl-70 [20],4
same,AtheNA signal (relative luminescence units),Jo-1 [21],8
same,AtheNA signal (relative luminescence units),Sm (Smith antigen) [22],13
same,AtheNA signal (relative luminescence units),Centromere B [23],27
same,AtheNA signal (relative luminescence units),SSA [24],10
CH103 (antibody),LogAUC,CH505.M9D8gp120/293F [25],11.6
same,LogAUC,CH505.M21D8gp120/293F [26],11.4
same,LogAUC,CH505.M19D8gp120 [27],13.3
same,LogAUC,[28],11.5
same,LogAUC,[29],13.1
same,LogAUC,CH505.M5D8gp120293F [30],9.84
same,LogAUC,CH505.M11D8gp120/293F [31],13.4
same,LogAUC,CH505.M7D8gp120/293F [32],11.1
same,LogAUC,[33],12.2
same,LogAUC,CH505.M10D8gp120 [34],13.2
CH104 (antibody),LogAUC,CH505.M9D8gp120/293F [25],10.8
same,LogAUC,CH505.M21D8gp120/293F [26],11.2
same,LogAUC,CH505.M19D8gp120 [27],11.3
same,LogAUC,[28],10.1
same,LogAUC,[29],11.6
same,LogAUC,CH505.M5D8gp120293F [30],9.02
same,LogAUC,CH505.M11D8gp120/293F [31],12
same,LogAUC,CH505.M7D8gp120/293F [32],9.73
same,LogAUC,[33],10.8
same,LogAUC,CH505.M10D8gp120 [34],11.7
CH235 IA4 (antibody),AtheNA signal (relative luminescence units),Histones [1],6
same,AtheNA signal (relative luminescence units),RNP (ribonucleoprotein) [2],4
same,AtheNA signal (relative luminescence units),SSB [3],3
same,AtheNA signal (relative luminescence units),Scl-70 [4],2
same,AtheNA signal (relative luminescence units),Jo-1 [5],3
same,AtheNA signal (relative luminescence units),Sm (Smith antigen) [6],6
same,AtheNA signal (relative luminescence units),Centromere B [7],5
same,AtheNA signal (relative luminescence units),SSA [8],11
same,LogAUC,CH505.M9D8gp120/293F [36],0
same,LogAUC,CH505.M21D8gp120/293F [37],0
same,LogAUC,CH505.M19D8gp120 [38],0
same,LogAUC,CH505w030.20D8gp120/293F,0.24
same,LogAUC,[39],0
same,LogAUC,[40],0
same,LogAUC,CH505.M5D8gp120293F [41],1.36
same,LogAUC,CH505.M11D8gp120/293F [42],0
same,LogAUC,CH505w136.B18D8gp120,0
same,LogAUC,CH505.M7D8gp120/293F [43],0
same,LogAUC,[44],0
same,LogAUC,CH505.w30.12D8gp120,0
same,LogAUC,CH505w020.14D8gp120,0
same,LogAUC,CH505.M10D8gp120 [45],0.12
same,LogAUC,CH0505_CON D7gp120/293i,0
same,AtheNA signal (relative luminescence units),Histones [9],4
same,AtheNA signal (relative luminescence units),RNP (ribonucleoprotein) [10],3
same,AtheNA signal (relative luminescence units),SSB [11],5
same,AtheNA signal (relative luminescence units),Scl-70 [12],2
same,AtheNA signal (relative luminescence units),Jo-1 [13],4
same,AtheNA signal (relative luminescence units),Sm (Smith antigen) [14],6
same,AtheNA signal (relative luminescence units),Centromere B [15],5
same,AtheNA signal (relative luminescence units),SSA [16],11
same,Kd,[35],30.6 µM
same,koff,[35],0.0881 s⁻¹
same,kon,[35],2900 M⁻¹ s⁻¹
same,AtheNA signal (relative luminescence units),Histones [17],9
same,AtheNA signal (relative luminescence units),RNP (ribonucleoprotein) [18],5
same,AtheNA signal (relative luminescence units),SSB [19],4
same,AtheNA signal (relative luminescence units),Scl-70 [20],2
same,AtheNA signal (relative luminescence units),Jo-1 [21],2
same,AtheNA signal (relative luminescence units),Sm (Smith antigen) [22],12
same,AtheNA signal (relative luminescence units),Centromere B [23],10
same,AtheNA signal (relative luminescence units),SSA [24],12
